The target of assay [1] is T1, human E-cadherin ectodomain EC1–5 with Twin-Strep and 8His tags (used for BLI) (Homo sapiens).
T1 construct: the range counts on the precursor; also called E-cadherin used for BLI; source: Expi293, transfected, purified from culture supernatant (StrepTactin XT)
T1 chain: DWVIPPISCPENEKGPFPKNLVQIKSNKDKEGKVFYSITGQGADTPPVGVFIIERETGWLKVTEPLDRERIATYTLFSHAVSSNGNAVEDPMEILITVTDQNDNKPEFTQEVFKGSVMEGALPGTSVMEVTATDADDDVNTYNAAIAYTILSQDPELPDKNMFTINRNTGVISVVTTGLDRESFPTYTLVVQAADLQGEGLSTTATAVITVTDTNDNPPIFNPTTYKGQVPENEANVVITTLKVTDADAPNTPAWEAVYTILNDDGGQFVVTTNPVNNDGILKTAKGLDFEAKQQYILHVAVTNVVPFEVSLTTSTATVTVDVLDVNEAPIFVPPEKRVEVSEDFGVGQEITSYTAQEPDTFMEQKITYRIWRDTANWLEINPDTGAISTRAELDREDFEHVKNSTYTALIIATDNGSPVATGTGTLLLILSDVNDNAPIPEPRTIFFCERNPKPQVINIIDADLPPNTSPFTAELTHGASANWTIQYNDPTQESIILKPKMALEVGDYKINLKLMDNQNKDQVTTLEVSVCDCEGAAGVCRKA
The assay is described as follows: BLI; method taken from the construct description (E-cadherin used for BLI had an additional 8His tag); format and conditions not shown. The settings on record: both partners purified. (Biolayer interferometry detects binding as a change in optical thickness at a sensor tip.)

In assay [2] the target is T2, human E-cadherin EC1-5-TwinStrep-8His (Homo sapiens, UniProt P12830).
T2 construct: human E-cadherin extracellular domains EC1-5, residues 155 to 698; also called hEC1-5-TS-8His; hE-EC15-TS-8H; source: Expi293, transfected, purified from supernatant (StrepTactin XT); not shown: Twin-Strep, C-terminal, kept; 8His, C-terminal, kept
The experiment in a line: BLI; E-cadherin EC1-5-TwinStrep-8His loaded on Ni-NTA sensors; Fabs in a 1:3 dilution series; Octet Red96, 23°C, 1000 rpm; 50 mM Tris pH 8.0, 150 mM NaCl, 3 mM CaCl2, 0.25 mg/mL BSA, 0.005% Tween-20; 1:1 binding global fit. To be noted: both partners purified.

Where “and” joins values, the source holds several entries; their conditions need not be identical. Equal values may be shown once.

Three molecules from article PMC9491697 (PNAS Nexus, 2022) can be followed below.

B1: 19A11 Fab (activating antibody to human E-cadherin) (Fab, V domains shown)
VH: QVQLKESGPGLVAPSQSLSITCTVSGFSLSRYGVHWVRQPPGKGLEWLGMMWGGGNTDYNSALKSRLSISKDNSKSQVFLKMNSLQTDDTAMYYCASSNYVLGYAMDYWGQGTSVTVSS
VL: DIVMTQSPSSLAMSVGQKVTMNCKSSQSLLNSSNQKNYLAWYQQKPGQSPKLLIYFTSTRGSGVPDRFIGSGSGTDFTLTISSVEAEDLADYFCQQHYRTPHTFGGGTKVEIK
notes: The 6His form was used for the crystal complex; Purified on a murine kappa light chain resin; also called 19A11-6His Fab; source: ExpiCHO, transfected, purified (CaptureSelect LC-kappa (mur) and Ni-NTA, or StrepTactin XT); ConA-cleared for crystallography
One may read the Kd as the concentration at which binding is half-saturated. Molecule B1 had a Kd in assay [1] of about 6.5 nM.

B2: 66E8 Fab (Fab, V domains shown)
VH: EVQLQQSGPELVKPGASVKISCKASGYSFTGYFMNWVKQSHGKSLEWIGRINPYNGDTFYKQRFKGKATLTVDKSSSTVHMDLLSLTSEDSAVYYCGRGNYYFDYWGQGTTLTVSS
VL: DVQITQSPSYLAASPGETITINCRTSKNISKYLAWYQEKPGKTNKLLIYSGYTLQSGIPSRFSGSGSGTDFTLTISSLEPEDFAMYYCQQHNEYPYTFGGGTKLEIK
notes: heavy chain of the 66E8 Fab in PDB 6VEL; light chain of the 66E8 Fab in PDB 6VEL; Fab as used in BLI and analytical SEC; source: ExpiCHO, transfected, purified
For B2, in assay [2], the Kd is 90.1 nM and 96.5 nM and 91.8 nM and 92.8 nM.

B3: 66E8 Fab (activating antibody to human E-cadherin) (Fab, V domains shown)
VH: EVQLQQSGPELVKPGASVKISCKASGYSFTGYFMNWVKQSHGKSLEWIGRINPYNGDTFYKQRFKGKATLTVDKSSSTVHMDLLSLTSEDSAVYYCGRGNYYFDYWGQGTTLTVSS
VL: DVQITQSPSYLAASPGETITINCRTSKNISKYLAWYQEKPGKTNKLLIYSGYTLQSGIPSRFSGSGSGTDFTLTISSLEPEDFAMYYCQQHNEYPYTFGGGTKLEIK
notes: source: ExpiCHO, transfected, purified (CaptureSelect LC-kappa (mur) and Ni-NTA, or StrepTactin XT); kifunensine and Endo Hf for crystallography
B3 had a Kd in assay [1] of about 100 nM.
